This passage reports Kd and fold reduction of affinity against 4 and 5 results from article PMC7898697.

Holding throughout (test): BLI
On the technique in general: BLI is a label-free optical method that tracks binding on a fibre tip over time.

The target in assay [1] is triazole-linked ^triazole42Ub^ADPr (4), biotinylated (UniProt P0CG48).
The target in assay [2] is triazole-linked ^triazole72Ub^ADPr, biotinylated (UniProt P0CG48).
Assay [3] concerns the target triazole-linked ^triazole42Ub^me-ADPr (5), biotinylated (UniProt P0CG48).
Assay [4] deals with triazole-linked ^triazole42Ub^Pr (6), biotinylated (UniProt P0CG48).
Assay [5] concerns the target unmodified ubiquitin, biotinylated (biotin-Ub) (UniProt P0CG48).
Assay [6] addresses natively linked ^Arg42Ub^ADPr, biotinylated (UniProt P0CG48).

For “DupA-H67A lacking the GST tag (from UniProt Q5ZTK7 1-301) (enzyme)”, the Kd in assay [1] was determined as 2200 nM; in assay [2] it was 9300 nM; in assay [3], 1200 nM. Moreover, the fold reduction of affinity against 4 and 5 in assay [4] and in assay [5] was more than 15 fold throughout.

Regarding “glutathione S-transferase (GST)-tagged DupA-H67A (from UniProt Q5ZTK7 1-301) (enzyme)”, the Kd is 11.2 nM in assay [1], 5.7 nM in assay [6], 10.6 nM in assay [3] and 54.5 nM in assay [5].

What is called Kd is a measure of binding affinity in units of concentration. A higher Kd goes with lower affinity.
